# ± gives the standard error. This sample holds only a part of the variants without activity.
# B1: glmS ribozyme (parent)
# chain: AUAAAAGCGCCAGAACUACAGAAAUGUAGUUGACGAGGAGGAGGUUUAUCGAAUUUUCGGCGGAUGCCUCCAAA
# Variants of: B1
# Assay: self-cleavage kobs at 10000 uM GlcN6P; higher = faster cleavage; RNA array
# Conditions: with glucosamine-6-phosphate
# How it was run: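 Weighted Michaelis–Menten fits across concentrations supplied kcat and KM, based on kobs from one- or two-exponential decay fits to normalised per-tile medians. The data came from barcoded ribozyme variants transcribed in situ by E. coli RNA polymerase on sequenced MiSeq chips and tracked at 37 °C by a hybridised Cy3 probe. Glucosamine-6-phosphate (40 μM to 10 mM) in HEPES/KCl/Mg(OAc)2 buffer was flowed in.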
row,Variant,self-cleavage kobs at 10000 uM GlcN6P [s⁻¹]
1,AUAAAAAUGCCAGAACUACAGAAAUGUAGUUGACGAGGAGGAGGUUUAUCGAAUUCUCGGCGGAUGCCUCCAAA [G7A C8U U56C],< 1e-05
2,AUAAAAGCGCCAGAACUACAGAAAUUUAGUUGACGAGGAGGAGUUUUAUCGAAUUUUCGGCGGAUGCCUCCAAA [G26U G44U],0.000189 ± 3.6e-05
3,AUAAAAGCGCCAGAACUACAGAAAUGUAGGUGACGAGGUGGAGGUUUAUCGAAUUUUCGGCGGAUGCCUACAAA [U30G A39U C70A],7.17e-05 ± 1.8e-05
4,AUAAAAGCGCCAGAGCUACAGAAAUGUAGGUGACGAGGAUGAGGUUUAUCGAAUUUUCGGCGGAUGCCUCCAAA [A15G U30G G40U],0.000863 ± 0.00017
5,AUAAAUGCGCCAGAAUUACAGAAAUGUAGUUGACGAGGAGGAGGAUUAUCGAAUUUUCGGCGGAUGCCUCCAAA [A6U C16U U45A],0.000375 ± 6.6e-05
6,AUAAAAGCGCCACAACUACAGAAAUGUAGUUGACCAGGAGGAGGUUUACCGAAUUUUCGGCGGAUGCCUCCAAA [G13C G35C U49C],< 1e-05
7,AUAAAAGCGCGAGAACUACAGAAAUGUAGAUGACGAGGAGGAGGUUUAUCGAAUUUUCCGCGGAUGCCUCCAAA [C11G U30A G59C],0.000168 ± 3.9e-05
8,AUAAAAGCGCGAGAGCUACAGAAAUGUAGUUGACGAGGACGAGGUAUAUCGAAUUUUCGGCAGUUGCCUCCAAA [C11G A15G G40C U46A G62A A64U],< 1e-05
9,AUAAAAGCGCCAGAACUACAGAAAUGUAGUUGACGGGGAGGAGGUUUGUCGAAUUUUCGGCGGAUGCCUACAAA [A36G A48G C70A],< 1e-05
10,AUAAAAGCGCCAAAACUACAGAAAUGUAGUUGACGAGGAGGCGGUUUAUCGAAUUUUCGCCGGAUGCCUCCAAA [G13A A42C G60C],< 1e-05
11,AUAAAGGCGCUAGAACUACAGAAAUGUAGUUGAAGAGGAGGAGGUUUAUCGAAUUUUCGGCGGAUGCCUCCAAA [A6G C11U C34A],< 1e-05
12,AUAAAAGCGCCAGAGCUACAGAAAUGUAGUUGACGAGGAGGAGGUUUAUCGAAUUUUCGGCGGAUCCUUCCAAA [A15G G66C C68U],0.000127 ± 2.6e-05
13,AUAAAAGCGCCAGGACUACAGAAAUGUAGUUGACGAGGAGGUGGUUUAUCGGAUUUUCGGCGGAUGCCUCCAAA [A14G A42U A52G],6.3e-05 ± 1.1e-05
14,AUAAAAGCCCCAGAACUACAGAAAUGUAGUUGACGAGGAGUAUGUUUAUCGAAUUUUCGGCGGAUGGCUCCAAA [G9C G41U G43U C67G],< 1e-05
15,AUAAACGCGCCAGGACUACAGAAAUGUAGUUGACGAGGAGGAGGUUUAUCGAAUUUUCGGCGGGUGCCUCCAAA [A6C A14G A64G],0.000191 ± 3.2e-05
16,AUAAAAGCGCCAGAACUACAGAAAUGUAGUUGACGAGGUGGAGGUUAAUCGAAUUUUCGGCGGAUGUCUCCAAA [A39U U47A C67U],0.00456 ± 0.0007
17,AUAAAAGCGCCAGAACUACAGAAAUGUAGUUGACAAGGAGGAGGUUUAUCGAAUUUUCGCGGGCUACCUCCAAA [G35A G60C C61G A64C G66A],< 1e-05

row,Variant,self-cleavage kobs at 10000 uM GlcN6P [s⁻¹]
1,AUAAAAGCGCCAGAACUACAGAAAUGUAGUUGACGAGGAGGAGGUUUAUGGAGUUUUCGGCGGAUGCGUACAAA [C50G A53G C68G C70A],7.46e-05 ± 1.9e-05
2,AUAAAAGCGCCAGAUCUACAGAAAUGUAGUUGACGAGGAGGAGUUUUAUCGAAUUUUCGGCGGUUGCCUCCAAA [A15U G44U A64U],< 1e-05
3,AUAAAAGCGCUGGGACUACAGAAAUUUAGUUGACGAGGAGGAGGUUUAUCGAAUUUUCGGCGGAUGCCUCCAAA [C11U A12G A14G G26U],0.00104 ± 0.00024
4,AUAAAAGCGCCAGAGCUACAGAAAUGUACUUGACGAGGAGGAGCUUUAUCGAAUUUUCGGCGGAUGCCUCCAAA [A15G G29C G44C],< 1e-05
5,AUAAAUGCACCAGAACUACAGAAAUGUAGUUGACGAGGAGGACGUUUAUCGACUUUUCGGCGGAUGCCUGCAAA [A6U G9A G43C A53C C70G],< 1e-05
6,AUAAAAGCGCCAGAACUACAGAAAUGUAGUUGACUAGGAGGAGGUUUAUCGAUUUAUCGGCGGAUGCCUCCAAA [G35U A53U U56A],< 1e-05
7,AUAAACGUCCCAGAACUACAGAAAUGUAGUUGACGAGGAGGAGGUUUAUCGAAUUUUCGGCGGAUGUCUCCAAA [A6C C8U G9C C67U],< 1e-05
8,AUAAAAGCGGCAGAACUACAGAAAUGUAUUUGACGAGGAGGAGGUUUAUCGAAUCUUCGGCGGAUGCCUCCAAA [C10G G29U U55C],< 1e-05
9,AUAAACGCGCCAGAACUACAGAAAUGUAGUUGACGAGGAGGAGGCUUAUCGAAUUUUCGGCGGAUGCCGCCAAA [A6C U45C U69G],< 1e-05
10,AUAAAAGCGCCAGAACUACAGAAAUGUAAUUGACGAGGACGAGAUUUAUCGAAUUUUCGGCGGAUGCCUCCAAA [G29A G40C G44A],< 1e-05
11,AUAAAAGCGCCAGAACUACAGAAAUGUAGUUGCCGAGGAGGAGGGUUAUCGAAUUUUCGGCGGAUGCCUCCAAA [A33C U45G],4.71e-05 ± 1e-05
12,AUAAAAGCGCCAGAACUCCAGAAAUGUAGUUGCCGAGGAGGAGGUUUAUCGAAUUUUCGGCGGAUGCCUCCAAA [A18C A33C],0.000165 ± 4.4e-05
13,AUAAAAGCGCCAGACCUACAGAAAUGUAGCUGACGAGGGGGAGGUUUAUCGAAUUUUCGGCGGAUGCCUCCAAA [A15C U30C A39G],0.000286 ± 6.4e-05
14,AUAAAAGCGAUAGAACUACAGAAAUGUAGUUGACGAGCAGGAGGUUUAUCGAAUCUUCGGAGGUUGCCUCCAAA [C10A C11U G38C U55C C61A A64U],< 1e-05
15,AUAAAAGCGCCAGAACUACAGAAAUGUAGUUGACGAGGAGGACGUUUAUCUAAUUUUCGGCUGAUGCCUCCAAA [G43C G51U G62U],< 1e-05
16,AUAAAAGCGCCAGAACUACAGAAAUGUAGUUUACGAGGAGGAGGUUUAUCGAAUUAUAGGCGGAUGCAUCCAAA [G32U U56A C58A C68A],0.000114 ± 2.2e-05
17,AUAAAAGCGCCAGAACUACAGAAAUGUAGUUGACGAGGAGGAGGUUUAUUGAAUUUUAGGCGGAUGUCUCCAAA [C50U C58A C67U],< 1e-05

# From the supplement of paper PMC7125110
